# Key:
# [1] = molecular target: T1, 重组人4-1BB蛋白(ACRO，货号41B-H5227) (human, UniProt Q07011 24-186); assay: SPR (BIAcore), antibody captured on Protein A on a CM5 chip, 4-1BB 20nM-0.31nM as analyte
# T1 construct: Bought recombinant protein; also called 4-1BB抗原; TNFRSF9
# [2] = molecular target: 人4-1BB on HEK293/Human4-1BB细胞 (human, UniProt Q07011 24-255); assay: cell-based or functional assay
# Chain of 人4-1BB on HEK293/Human4-1BB细胞 (Q07011 24-255): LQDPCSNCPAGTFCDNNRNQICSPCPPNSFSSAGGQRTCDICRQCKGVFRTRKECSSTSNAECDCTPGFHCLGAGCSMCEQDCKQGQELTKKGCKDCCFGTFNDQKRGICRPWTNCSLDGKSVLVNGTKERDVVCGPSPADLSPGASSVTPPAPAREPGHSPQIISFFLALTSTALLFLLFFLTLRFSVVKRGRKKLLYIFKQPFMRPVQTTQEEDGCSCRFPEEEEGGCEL
binder,measurement,setting,value
"抗人4-1BB的单克隆抗体MC03 (antibody, human IgG2, kappa, V domains shown, Obtained according to PCT/US2020/012080; The isotype control used is human IgG2; also called huG28.21.G2.1.4) VH: EVQLVQSGAEVKKPGATVKISCKASGFNIKDYYIHWVNQAPGKGLEWIGRIDPEDGDIAYAPKFQDRVTLTVDTSTDTAYLELSSLRSEDTAVYYCTTGNYYAMDFWGQGTTVTVSS VL: QIVLTQSPATLSASPGERVTLSCTASSSVSSSYLHWYQQKPGSSPKLWIYSTSNLASGVPARFSGSGPGTSYTLTISSMEPEDAATYYCHQYHRSPPTFGQGTKLEIKR",Kd,[1],0.918 nM
same,NF-κB报告基因发光值(RLU) EC50,[2],7.69 ng/mL
